# Measured values as given in patent US11795454B2, “Targeted delivery system” (Cedars-Sinai Medical Center, priority 2009, dated 2023).
# What was measured:
# HER2 siRNA = test: siRNA gel mobility shift assay; type: binding; conditions: 50 pmol siRNA, increasing protein
# Text: The gel was stained with ethidium bromide to visualize siRNA and siRNA-protein complexes.
# One goal was to assemble a noncovalent siRNA conjugate. […] The duplex, which was obtained from Invitrogen (Carlsbad, CA, USA), has been established elsewhere to specifically eliminate HER2 transcripts and thus induce apoptosis (Choudhury et al., 2004; Faltus et al., 2004).
# MDA-MB-435 (HER2+) cells [1] = test: HerDox targeted toxicity in vitro, separate cultures; type: cell-based, human; conditions: 10× molar excess
# Experimental: All treatments, N=3. FIG. 27A. Comparing cytotoxicity to HER2+ (MDAMB-435) and HER2− (MDA-MB-231) cells in separate cultures. Left, Relative survival (as % of untreated cells) on day 3 of treatment. Right, Micrograph of live cells after treatment. Control, mock (HBS) treatment. FIG. 27B, Receptor specificity of cytotoxicity. […] FIG. 27C, Toxicity to cells displaying differential HER2. Cytotoxicities from HerDox titrations were assessed on each cell line by metabolic assay and confirmed by crystal violet stain on day 3 of treatment. CD50 values (shown in log scale) were determined by non-linear regression analyses of HerDox killing curves using GraphPad Prism. The relative HER2 level of each cell line is shown next to each CD50 value. FIG. 27D, Targeting in a mixed MDA-MB-435(HER2+,GFP−)/MDA-MB-231(HER2−,GFP+) cell culture. Survival was determined by calculating the relative doubling time (DT) of experimental (exp) cells normalized by mock-treated (con) cells based on crystal violet stains (total cells) and GFP fluorescence (MDAMB-231 cells), and applying DTMDA-MB-435=DTTotal-DTMDA-MB-231 as previously described. Relative survival is shown for Day 2 of treatment. FIG. 27E, Targeted glioma cell death in vitro. U251 cells were treated once with the indicated HerDox (and competitive inhibitor where indicated) or Dox doses and measured for cell survival at the indicated time points after treatment. * P<0.05 compared to Mock.
# For all in vitro treatments, cell lines were grown for ˜36 h after plating (104/well in 96-well dishes) to allow receptor re-expression, followed by media replacement with new media containing indicated constructs in reduced volume at the indicated final molarities for 4 h with rocking, followed by supplementation with additional media and continued growth for the indicated time periods. Except for the experiments performed on the U251 glioma cells (which received a one-time treatment), cells received these treatments daily while separate sets of wells were assessed for cell death by either metabolic assay (CellTiter Promega Corporation, Madison, WI, USA) or crystal violet stain each day. Where indicated, cells received competitive inhibitor (eHRG) at 10× molar excess for 30 min-1 h at 4° C. before treatment. Treatment of mixed (HER2+/HER2−) cell cultures with HerDox or Dox (0.5 uM), and cell surface receptor subunit level determination were performed as previously described.
# MDA-MB-435 (HER2+) cells [2] = test: Cell survival (crystal violet) after targeted or lipo-mediated siRNA delivery; type: cell-based, human
# Experimental: (§1) Complexes were prepared as described in FIG. 2. Un, untreated. In FIG. 12A, *, P<0.02 (HER2+ vs HER2− cells). In FIG. 12B, *, P<0.05 (compared to untreated). Significant differences determined by 2-tailed t tests.
# MDA-MB-231 (HER2−) cells = test: as above; type: cell-based, human
# Experimental: as §1
# [3] = test system: HER2+ human breast cancer cells; test: Survival of HER2+ cells in culture after targeted conjugate (summary); type: cell-based; conditions: depending on the cell line
# Text: The inventors designed HerPBK10 to penetrate HER2+ cells by combining the ‘Her’ domain for binding heregulin receptors, which have an increased ligand affinity on HER2+ tumor cells, and the membrane lysis and intracellular trafficking features of the ‘PB’ domain, which is derived from the cell-entry functions of the Ad capsid. Binding and transport of nucleic acids can be mediated by the polylysine, ‘K10’ domain. […] Using in vivo fluorescence imaging, it was observed that the targeting ligand used here specifically accumulates at HER2+ tumor tissue in mice while evading accumulation in other tissues. It was also observed that HerPBK10 could mediate the uptake of a Cy3-labeled oligonucleotide in HER2+ cells. […] Associated with this reduction was substantial target cell death.
# [4] = test system: HER2+ (MDA-MB-435) tumors; test: In vivo tumor targeting of Cy5-labeled siRNA, fluorescence imaging; set-up: species or system mouse; conditions: tail vein injection
# Text: FIGS. 23A-23C depict in accordance with an embodiment herein, monitoring in vivo tumor targeting. […] The mice were immediately monitored by in vivo fluorescence intensity imaging through our collaborators' imaging facility (Farkas lab, Cedars-Sinai Medical Center). 23C, Analysis of the fluorescence intensity contrast between tumor and non-tumor areas of 23A and 23B (graphs).
# [5] = Ultrafiltration of HerPBK10-siRNA conjugates (100K mwco, high speed centrifugation); type: physicochemical
# Text: FIGS. 6A-6B depict, in accordance with an embodiment described herein, HerPBK10-siRNA form stable conjugates that can be isolated by ultrafiltration. Conjugates were made in 0.1M Hepes/OptimemI buffer for 20′-RT, as described above. […] Filtrates and retentates were collected and loaded onto either a 2% agarose (FIGS. 6A and 6B, left panel) or 5% PAGE/native gel (FIG. 6B, right panel). Gels were stained for Et-Br to visualize siRNA and siRNA-protein complexes.
# [6] = siRNA stability in serum, agarose gel electrophoresis; type: in vitro ADME, bovine; conditions: 100% serum, 1 h at 37° C.
# Text: We examined the stability of siRNA conjugates in whole serum. […] Ethidium bromide staining of the agarose gel identifies the siRNA molecular size and relative concentration.
# HER2+ MDA-MB-435 tumors = test: Tumor growth after intratumoral injection; type: in vivo, mouse; conditions: two IT injections a week apart, 1.5 nmoles siRNA
# Experimental: FIGS. 15A-15B depict, in accordance with an embodiment herein, effect on tumor growth. Female (6-8 week) nude mice were inoculated with human HER2+ MDA-MB-435 cancer cells by subcutaneous flank injections of 1×10^7 cells per injection. At 4-6 weeks after implant, weekly measurements were taken to quantify tumor volume and track growth. […] Complex was prepared as described in FIG. 14. FIG. 15A, representative mice at week 4 with tumors indicated by arrows.
# Before testing for targeted toxicity of HerPBK10-siRNA, the inventors assessed cytotoxic potential in vivo after intratumoral (IT) injection of complexes in tumor-bearing mice. […] Blood was also collected after each injection to assess cytokine levels. […] Even though the complex was not delivered intravenously but rather by IT injection, there still appears to be an advantage to the targeted complex with regard to tumor toxicity.
# IFN-alpha [7] = test: IFN-alpha secretion by sandwich ELISA, MDA-MB-435 cells; type: cell-based, human; conditions: complex at 10 and 50 nM siRNA dose, HerPBK10 equivalent to 50 nM dose, 24 h
# Experimental: (§2) FIGS. 13A-13B depict, in accordance with an embodiment herein, cytokine induction. […] At 24 h after treatment, media was collected from above the cells and assayed for (FIG. 13A) IFN-alpha, or (FIG. 13B) IFN-beta titer by sandwich ELISA following manufacturer's protocol (PBL Biomedical Laboratories). *, P<0.01 (compared to untreated); **, P=0.01 (HER2+ vs HER2− cells); †, P<0.05 (compared to untreated). Statistical significances determined by 2-tailed t tests.
# (§3) To examine whether cytokines contribute to the targeted toxicity observed earlier, the media of HerPBK10-siRNA (T7-transcribed)-treated HER2+ MDA-MB-435 and HER2− MDA-MB-231 cells were collected and assayed by ELISA for interferons alpha and beta. […] Given the overall low level of cytokine detected in the medium by all treatments, these differences are likely to have little relevance.
# IFN-alpha [8] = test: In vivo cytokine induction, blood IFN-alpha ELISA after IT injection; set-up: species or system mouse; conditions: 24 h after each IT injection, compared to saline control
# Experimental: FIG. 16 depicts, in accordance with an embodiment herein, in vivo cytokine induction. Blood was collected from the mice treated in FIG. 15B at 24 h after each IT injection and relative IFN-alpha levels quantified by sandwich ELISA following manufacturer's protocol (PBL Biomedical Laboratories). Control, tumors receiving saline injections. *, P=0.05 compared to control (as determined by 2-tailed unpaired T test).
# To examine whether cytokines contribute to the tumor reduction observed and described herein, blood was collected from the same mice at 24 h after each IT injection and assayed for interferon (TFN)-alpha. […] It is possible that its indirect contribution results from enhanced tumor delivery, penetration, retention. Together with the tumor-shrinkage observed from these injections, these findings provide additional evidence that the targeted carrier, HerPBK10, can deliver both siRNA-mediated silencing and cytokine-mediated cytotoxicity to induce two-pronged targeted destruction to tumor cells.
# IFN-alpha [9] = test: IFN-alpha secretion by sandwich ELISA, MDA-MB-231 cells; type: cell-based, human; conditions: 24 h
# Experimental: as §2, §3
molecule,measurement,setting,value
PB: penton base segment of adenovirus serotype 5 [reference compound],siRNA electromobility,HER2 siRNA,did not
"eHRG: competitive inhibitor, competing ligand of the heregulin receptor (protein, UniProt Q02297 20-242, looked up, extracellular domain) extracellular domain: SGKKPESAAGSQSPALPPRLKEMKSQESAAGSKLVLRCETSSEYSSLRFKWFKNGNELNRKNKPQNIKIQKKPGKSELRINKASLADSGEYMCKVISKLGNDSASANITIVESNEIITGMPASTEGAYVSSESPIRISVSTEGANTSSSTSTSTTGTSHLVKCAEKEKTFCVNGGECFMVKDLSNPSRYLCKCQPGFTGARCTENVPMKVQNQEKAEELYQKR",effect of competitive inhibitor on cell killing by HerDox,MDA-MB-435 (HER2+) cells [1],prevented HER2+ cell killing
HerPBK10-siRNA: noncovalent conjugate of HerPBK10 with anti-HER2 siRNA bound via electrophilic interaction (conjugate) LPPRLKEMKSQESAAGSKLVLRCETSSEYSSLRFKWFKNGNELNRKNKPQNIKIQKKPGKSELRINKASLADSGEYMCKVISKLGNDSASANITIVESNEIITGMPASTEGAYVSSESPIRISVSTEGANTSSSTSTSTTGTSHLVKCAEKEKTFCVNGGECFMVKDLSNPSRYLCKCQPGFTGARCTENVPMKVQNQEKAEELYMRRAAMYEEGPPPSYESVVSAAPVAAALGSPFDAPLDPPFVPPRYLRPTGGRNSIRYSELAPLFDTTRVYLVDNKSTDVASLNYQNDHSNFLTTVIQNNDYSPGEASTQTINLDDRSHWGGDLKTILHTNMPNVNEFMFTNKFKARVMVSRLPTKDNQVELKYEWVEFTLPEGNYSETMTIDLMNNAIVEHYLKVGRQNGVLESDIGVKFDTRNFRLGFDPVTGLVMPGVYTNEAFHPDIILLPGCGVDFTHSRLSNLLGIRKRQPFQEGFRITYDDLEGGNIPALLDVDAYQASLKDDTEQGGGGAGGSNSSGSGAEENSNAAAAAMQPVEDMNDHAIRGDTFATRAEEKRAEAEAAAEAAAPAAQPEVEKPQKKPVIKPLTEDSKKRSYNLISNDSTFTQYRSWYLAYNYGDPQTGIRSWTLLCTPDVTCGSEQVYWSLPDMMQDPVTFRSTRQISNFPVVGAELLPVHSKSFYNDQAVYSQLIRQFTSLTHVFNRFPENQILARPPAPTITTVSENVPALTDHGTLPLRNSIGGVQRVTITDARRRTCPYVYKALGIVSPRVLSSRTFKKKKKKKKKK,cell survival,MDA-MB-435 (HER2+) cells [2],dose-dependent reduction in survival
same,cell survival,MDA-MB-231 (HER2−) cells,little to no effect
same,reduction in HER2+ cell survival,[3],up to 85%
same,tumor retention,[4],tumor retention
same,fluorescence intensity contrast between tumors and non-tumor areas,"[4]; all time points, compared to free siRNA",preferential tumor accumulation
same,Free siRNA in 100K filtrates,[5],low to no detection of free siRNA
same,State of the siRNA (ethidium bromide staining),[6],intact
same,tumor growth,HER2+ MDA-MB-435 tumors,average reduction in tumor growth
same,IFN-alpha secretion,IFN-alpha [7],substantially elevated
same,circulating IFN-alpha,IFN-alpha [8],elevated circulating IFN-alpha
same,IFN-alpha secretion,IFN-alpha [9],little affected
